Measured values published in US20250002576A1 (FUSION PHARMACEUTICALS, published 2025).
Substitutions are numbered along the chain they refer to.

T1: hCLDN18.1 (antigen of the scFv screening) (human, UniProt P56856 28-80)
T1 construct: ELISA or flow cytometry according to the selection strategy
T1 sequence (looked up): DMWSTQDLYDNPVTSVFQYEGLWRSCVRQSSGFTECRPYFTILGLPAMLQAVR

B1: YU578-D01 (scFv as screened) (scFv, V domains shown)
VH: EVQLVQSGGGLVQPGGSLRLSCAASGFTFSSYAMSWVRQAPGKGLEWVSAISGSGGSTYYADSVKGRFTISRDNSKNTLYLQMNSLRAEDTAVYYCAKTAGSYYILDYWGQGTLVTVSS
VL: DIQLTQSPSSLSASVGDRVTITCRASQGISNYLAWFQQKPGKAPKSLIYAASSLQSGVPSKFSGSGSGTDFTLTISSLQPEDFATYYCQQYNSYPLTFGGGTKVDIK
B2: YU577-E12 (scFv as screened) (scFv, V domains shown)
VH: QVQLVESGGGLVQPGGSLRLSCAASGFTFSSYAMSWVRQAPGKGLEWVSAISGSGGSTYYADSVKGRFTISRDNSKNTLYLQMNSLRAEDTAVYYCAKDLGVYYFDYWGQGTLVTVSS
VL: DIVMTQSPSFLSASAGDRVTITCRASQGISSYLAWYQQKPGKGPKLLIYAASTLQSGVPSRFSGSGSGTEFTLTISSLQPEDFATYYCQQVNSYPLTFGPGTKVDIK
B3: YU577-H07 (scFv as screened) (scFv, V domains shown)
VH: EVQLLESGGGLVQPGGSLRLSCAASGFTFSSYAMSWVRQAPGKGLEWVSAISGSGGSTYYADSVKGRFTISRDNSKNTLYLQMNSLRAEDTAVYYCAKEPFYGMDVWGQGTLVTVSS
VL: DIQMTQSPSSVSASVGDRVTITCRASQGISSWLAWYQQKPGKAPKLLIYAASSLQSGVPSRFSGSGSGTDFTLTISSLQPEDFATYYCQQANSFPLTFGGGTKLEIK
B4: YU574-D03 (scFv as screened) (scFv, V domains shown)
VH: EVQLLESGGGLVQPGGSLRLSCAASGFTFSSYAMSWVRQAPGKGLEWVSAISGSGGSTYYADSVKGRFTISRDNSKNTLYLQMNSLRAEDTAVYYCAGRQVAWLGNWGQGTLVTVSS
VL: B3 VL with Q3V, L104V, E105D
B5: YU577-B11 (scFv as screened) (scFv, V domains shown)
VH: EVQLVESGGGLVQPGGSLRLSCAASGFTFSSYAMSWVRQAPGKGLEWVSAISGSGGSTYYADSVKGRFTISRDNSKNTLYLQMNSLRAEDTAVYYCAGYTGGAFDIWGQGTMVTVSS
VL: B3 VL
B6: YU577-E08 (scFv as screened) (scFv, V domains shown)
VH: QVQLVQSGAEVKKPGASVKVSCKASGYTFTSYYMHWVRQAPGQGLEWMGIINPSGGSTSYAQKFQGRVTMTRDTSTSTVYMELSSLRSEDTAVYYCATRQFDYWGQGTLVTVSS
VL: QSVLTQPPSVSAAPGQKVTISCSGSSSNIGNNYVSWYQQLPGTAPKLLIYENNKRPSGIPDRFSGSKSGTSATLGITGLQTGDEADYYCGTWDSSLSAAVFGGGTKVTVL
B7: YU574-E07 (scFv as screened) (scFv, V domains shown)
VH: QVQLQESGGGVVQPGRSLRLSCAASGFTFSSYGMHWVRQAPGKGLEWVAVISYDGSNKYYADSVKGRFTISRDNSKNTLYLQMNSLRAEDTAVYYCAKDQRGGLYGMDVWGQGTLVTVSS
VL: QSVLTQPPSASGAPGQRVTISCTGSSSNIGAGYDVHWYQQLPGTAPKLLIYGNSNRPSGVPDRFSGSKSGTSASLAITGLQAEDEADYYCQSYDSSLSGWVFGGGTKLTVL
B8: YU575-H03 (scFv as screened) (scFv, V domains shown)
VH: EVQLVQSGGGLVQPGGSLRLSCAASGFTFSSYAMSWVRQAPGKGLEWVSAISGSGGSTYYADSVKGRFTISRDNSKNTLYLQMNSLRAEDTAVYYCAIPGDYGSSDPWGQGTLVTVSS
VL: B7 VL with A10V, W100Y, G104T
B9: YU574-D11 (scFv as screened) (scFv, V domains shown)
VH: QVQLVQSGGGLVQPGGSLRLSCAASGFTFSSYAMSWVRQAPGKGLEWVSAISGSGGSTYYADSVKGRFTISRDNSKNTLYLQMNSLRAEDTAVYYCAGGANGFDPWGQGTLVTVSS
VL: B7 VL with A10V, W100L
B10: YU578-F02 (scFv as screened) (scFv, V domains shown)
VH: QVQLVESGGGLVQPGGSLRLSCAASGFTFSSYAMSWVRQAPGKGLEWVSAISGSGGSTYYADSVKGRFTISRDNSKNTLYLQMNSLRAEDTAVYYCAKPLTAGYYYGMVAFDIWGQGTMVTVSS
VL: B2 VL with A15V, G43A, V91L, L96I, P100Q, V104L, D105E
B11: YU577-B01 (scFv as screened) (scFv, V domains shown)
VH: EVQLVESGGGVVQPGRSLRLSCAASGFTFSSYGMHWVRQAPGKGLEWVAVISYDGSNKYYADSVKGRFTISRDNSKNTLYLQMNSLRAEDTAVYYCAKDVTYYYDSSGSPDFDYWGQGTLVTVSS
VL: B1 VL with L96Y, T97S, G100Q, D105E
B12: YU574-H09 (scFv as screened) (scFv, V domains shown)
VH: QVQLVQSGAEVKKPGASVKVSCKASGYTFTSYYMHWVRQAPGQGLEWMGIINPSGGSTSYAQKFQGRVTMTRDTSTSTVYMELSSLRSEDTAVYYCARGGSGFDYWGQGTLVTVSS
VL: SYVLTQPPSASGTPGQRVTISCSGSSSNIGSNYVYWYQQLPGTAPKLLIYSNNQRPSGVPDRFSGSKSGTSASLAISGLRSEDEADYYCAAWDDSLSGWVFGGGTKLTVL
B13: YU574-D03 (antibody, V domains shown)
VH: not shown
VL: B3 VL with Q3V, L104V, E105D
B14: YU577-H07 (antibody, V domains shown)
VH: not shown
VL: B3 VL
B15: YU575-H03 (antibody, V domains shown)
VH: not shown
VL: B7 VL with A10V, W100Y, G104T
B16: YU578-F02 (antibody, V domains shown)
VH: not shown
VL: B2 VL with A15V, G43A, V91L, L96I, P100Q, V104L, D105E
B17: YU574-H09 (antibody, V domains shown)
VH: B12 VH
VL: not shown

Each binder was assayed against T1, hCLDN18.1 (antigen of the scFv …) (assay: ELISA or flow cytometry, scFv screening).
Protocol: A naïve human antibody library was used to select CLDN18.2 antibodies and incubated with CLDN18.2 antigen or CLDN18.2-expressing cells for four rounds of biopanning, following the strategy described in Table 3. Monoclonal antibody clones were selected, produced as scFv antibodies, and screened using ELISA (clones identified from Strategy 1 or 2) or flow cytometry (clones identified from Strategy 3 or 4) to identify clones with hCLDN18.2 affinity and no hCLDN18.1 cross-reactivity. 188 such clones were and subsequently sequenced, yielding 68 unique antibodies. The unique antibodies were further screened using flow cytometry to identify clones with mCLDN18.2 affinity, yielding 50 human/mouse cross-reactive antibody clones.

Row | binding result | Binder
1 | no binding | B1
2 | no binding | B2
3 | no binding | B3
4 | no binding | B4
5 | no binding | B5
6 | no binding | B6
7 | no binding | B7
8 | no binding | B8
9 | no binding | B9
10 | no binding | B10
11 | no binding | B11
12 | no binding | B12

Each binder was assayed against lysozyme (assay: non-specific binding ELISA, lysozyme immobilized).
Protocol: DNA, LPS, lysozyme, and cell lysate were immobilized onto microtiter plates. Testing antibodies were added to the wells and incubated. Bound antibodies were detected via a fluorescently-labeled substrate. The fluorescence intensity was normalized to the signal of a control antibody (trastuzumab). Higher normalized signal correlates to stronger off-target or non-specific binding.

Row | normalized signal (fluorescence intensity normalized to trastuzumab) | Binder
13 | 1.1 | B13
14 | 1.3 | B14
15 | 0.9 | B15
16 | 1 | B16
17 | 1.3 | B17
